Like-named read-outs stand apart in the source and are kept apart here.
Tests used:
Details in all cases: both partners purified
Munc18-1-His [1] = molecular target: T1, Munc18-1-His (rat, UniProt P61765 1-594)
T1 construct: Munc18-1 (STXBP1); also called Munc18a; STXBP1; source: E. coli Rosetta BL21 (DE3), purified to homogeneity as described by Hu et al

[2] = molecular target: T2, Mint1 PTB + APP (750-769) (human, UniProt Q02410 448-623); assay: ITC; as a5, competition experiment with the other peptide (APP 750-769 or TJAP1 9-22) present with Mint1 PTB in the cell
T2 construct: human Mint1 PTB domain, residues 448-623, as m35; human amyloid precursor protein residues 750-769, as m36; source: mixed from purified m35 and the synthetic peptide m36

[3] = molecular target: T3, Mint1 PTB domain (residues 448-623) (human, UniProt Q02410 448-623); assay: ITC; 25 °C, 50 mM Hepes, 200 mM NaCl, 0.5 mM TCEP, 5% glycerol; 1 mM peptide titrated into 50 μM Mint1 PTB domain; 1:1 binding model
T3 construct: human Mint1 PTB domain, residues 448-623; pGEX6P-2; source: E. coli Rosetta BL21 (DE3), purified (glutathione-Sepharose, Prescission protease, gel filtration)
T3 sequence (looked up): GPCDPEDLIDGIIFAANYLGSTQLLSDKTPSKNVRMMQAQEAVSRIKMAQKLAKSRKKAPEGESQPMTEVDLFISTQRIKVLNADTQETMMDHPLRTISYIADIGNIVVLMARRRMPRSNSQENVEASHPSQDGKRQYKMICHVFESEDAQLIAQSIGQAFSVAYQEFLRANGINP

Mint1 PTB + TJAP1 (9-22) = molecular target: T4, Mint1 PTB + TJAP1 (9-22) (human, UniProt Q02410 448-623); assay: ITC; as a5, competition experiment with the other peptide (APP 750-769 or TJAP1 9-22) present with Mint1 PTB in the cell
T4 construct: human Mint1 PTB domain, residues 448-623, as m35; human tight junction-associated protein 1 residues 9-22, as m37; source: mixed from purified m35 and the synthetic peptide m37

Munc18-1-His [4] = molecular target: T1, Munc18-1-His; remark: listed apart in the source
Munc18-1 + Sx1a [5] = molecular target: T5, Munc18-1 + Sx1a (rat, UniProt P61765 1-594; P32851 1-261); assay: pull-down; GST-Mint1 MID as bait, Munc18-1 in the presence of Sx1a; Coomassie-stained gel
T5 construct: Munc18-1 (STXBP1), as m1; also called Munc18-1 in the presence of Sx1a; source: mixed from the purified E. coli proteins m1 and m32
T5 sequence (P61765 whole entry, chain 1 of 2): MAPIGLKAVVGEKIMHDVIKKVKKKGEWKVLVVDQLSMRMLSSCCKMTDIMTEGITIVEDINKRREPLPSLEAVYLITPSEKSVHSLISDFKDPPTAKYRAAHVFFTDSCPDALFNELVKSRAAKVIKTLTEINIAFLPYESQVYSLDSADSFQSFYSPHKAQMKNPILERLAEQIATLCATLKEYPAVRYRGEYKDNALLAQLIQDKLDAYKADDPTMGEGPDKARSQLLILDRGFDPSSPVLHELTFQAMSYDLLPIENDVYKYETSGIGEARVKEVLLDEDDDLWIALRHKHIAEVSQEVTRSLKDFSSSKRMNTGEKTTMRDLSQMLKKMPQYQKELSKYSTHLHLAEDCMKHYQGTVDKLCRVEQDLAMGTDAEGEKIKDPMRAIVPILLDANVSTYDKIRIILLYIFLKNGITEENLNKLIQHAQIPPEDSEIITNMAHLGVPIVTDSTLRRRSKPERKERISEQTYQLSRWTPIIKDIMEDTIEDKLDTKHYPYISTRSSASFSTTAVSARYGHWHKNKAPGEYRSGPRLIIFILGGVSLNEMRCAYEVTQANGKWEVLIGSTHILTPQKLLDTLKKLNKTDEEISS
T5 sequence (P32851 1-261, chain 2 of 2): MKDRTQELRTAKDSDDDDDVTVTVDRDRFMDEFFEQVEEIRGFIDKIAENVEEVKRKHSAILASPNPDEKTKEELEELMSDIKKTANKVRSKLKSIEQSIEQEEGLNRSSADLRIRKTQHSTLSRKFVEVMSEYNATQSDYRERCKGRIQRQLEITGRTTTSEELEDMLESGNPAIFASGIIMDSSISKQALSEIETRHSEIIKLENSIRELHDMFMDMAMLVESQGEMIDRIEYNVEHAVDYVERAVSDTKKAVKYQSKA

Munc18-1 + Sx1a [6] = molecular target: T5, Munc18-1 + Sx1a
Munc18-1-His [7] = molecular target: T1, Munc18-1-His; remark: listed apart in the source

T1 sequence (P61765 whole entry): as the sequence (P61765 whole entry, chain 1 of 2) above

B1: Mint1_4 peptide (263-282) (peptide)
peptide: SYEQEEDIDQIVAEVKQSMS
notes: source: synthetic peptide, bought: Genscript
- Kd (Munc18-1-His [1]): 12.9 µM
- dH (Munc18-1-His [1]): -2.3 kcal/mol
- stoichiometry N (Munc18-1-His [1]): 1.3

B2: Mint1_6 peptide (267-282) (peptide)
peptide: EEDIDQIVAEVKQSMS
notes: as for B1
- Kd (Munc18-1-His [1]): 4 µM
- dH (Munc18-1-His [1]): -1.29 kcal/mol
- stoichiometry N (Munc18-1-His [1]): 1.2

B3: Mint1_1c peptide (266-282) (peptide)
peptide: QEEDIDQIVAEVKQSMS
notes: as for B1
- Kd (Munc18-1-His [1]): 23.1 µM
- dH (Munc18-1-His [1]): -1.2 kcal/mol
- stoichiometry N (Munc18-1-His [1]): 1

B4: Mint1_5 peptide (265-282) (peptide)
peptide: EQEEDIDQIVAEVKQSMS
notes: as for B1
- Kd (Munc18-1-His [1]): 5.6 µM
- dH (Munc18-1-His [1]): -3.48 kcal/mol
- stoichiometry N (Munc18-1-His [1]): 1.3

B5: Mint1_2 peptide (257-286) (peptide)
peptide: PYPRMDSYEQEEDIDQIVAEVKQSMSSQSL
notes: human Mint1 residues 257-286; source: synthetic peptide, bought: Genscript
- Kd (Munc18-1-His [1]): 26 µM
- dH (Munc18-1-His [1]): -4.21 kcal/mol
- stoichiometry N (Munc18-1-His [1]): 1.3

B6: TJAP1 (9-22) peptide (peptide)
peptide: KPYRKAPPEHRELR
notes: human tight junction-associated protein 1 residues 9-22; also called TJAP1 peptide; PILT; source: synthetic peptide (solid phase synthesis in-house, reverse-phase HPLC)
- Kd [2]: 29.4 µM
- dH [2]: -7.1 kcal/mol
- stoichiometry N [2]: 1
- Kd [3]: 20.9 µM
- dH [3]: -8.9 kcal/mol
- stoichiometry N [3]: 1

B7: Mint1_3 peptide (257-286 phosphomimic) (peptide)
peptide: PYPRMDEEEQEEDIDQIVAEVKQEMEEQEL
notes: human Mint1 residues 257-286 with phosphomimetic Glu; source: synthetic peptide, bought: Genscript
- Kd (Munc18-1-His [1]): 14 µM
- dH (Munc18-1-His [1]): -6.5 kcal/mol
- stoichiometry N (Munc18-1-His [1]): 1.1

B8: APP (750-769) peptide (peptide)
peptide: SKMQQNGYENPTYKFFEQMQ
notes: human amyloid precursor protein residues 750-769; also called APP NPxY peptide; source: synthetic peptide (solid phase synthesis in-house, reverse-phase HPLC)
- Kd (Mint1 PTB + TJAP1 (9-22)): 0.58 µM
- dH (Mint1 PTB + TJAP1 (9-22)): -11.8 kcal/mol
- stoichiometry N (Mint1 PTB + TJAP1 (9-22)): 1
- Kd [3]: 0.31 µM
- dH [3]: -15.6 kcal/mol
- stoichiometry N [3]: 1

B9: Mint1_7 peptide (261-280) (peptide)
peptide: MDSYEQEEDIDQIVAEVKQS
notes: as for B1
- Kd (Munc18-1-His [1]): 19.1 µM
- dH (Munc18-1-His [1]): -1.78 kcal/mol
- stoichiometry N (Munc18-1-His [1]): 1

B10: GST-Mint1 MID (residues 222-314) (domain or fragment)
chain: EAAAYRQEALGARLHHYDERSDGESDSPEKEAEFAPYPRMDSYEQEEDIDQIVAEVKQSMSSQSLDKAAEDMPEAEQDLERPPTPAGGRPDSP
notes: pGEX4T-2, codon optimised; The methods call 226-314 the MID; also called GST-Mint1 (222-314); source: E. coli Rosetta BL21 (DE3), purified (glutathione-Sepharose, gel filtration)
- binding result (Munc18-1-His [4]): binds

B11: GST-Mint1 (226-314) (MID) (domain or fragment, human, UniProt Q02410 226-314, looked up)
chain: YRQEALGARLHHYDERSDGESDSPEKEAEFAPYPRMDSYEQEEDIDQIVAEVKQSMSSQSLDKAAEDMPEAEQDLERPPTPAGGRPDSP
notes: human Mint1 (X11, APBA1) residues 226-314, the MID by the methods; it could also be 222-314; also called GST-Mint1 MID; source: E. coli Rosetta BL21 (DE3), purified (glutathione-Sepharose, Superdex 75)
- binding result (Munc18-1 + Sx1a [5]): binds
- binding result (Munc18-1-His [4]): binds

B12: Mint1 (261-282) synthetic peptide (peptide)
peptide: MDSYEQEEDIDQIVAEVKQSMS
notes: also called Mint1_1; Mint1 AHM peptide; source: synthetic peptide, bought: Genscript
- dH (Munc18-1 + Sx1a [6]): -8.9 kcal/mol
- stoichiometry N (Munc18-1 + Sx1a [6]): 1
- dH (Munc18-1-His [1]): -8.8 kcal/mol
- stoichiometry N (Munc18-1-His [1]): 0.8
- dH (Munc18-1-His [7]): -7.9 kcal/mol
- stoichiometry N (Munc18-1-His [7]): 1
